This experiment has as its target T1, HEWL (lysozyme, derived from egg albumen, FUJIFILM Wako Pure Chemical Corporation) (UniProt P00698 19-147).
T1 construct: Immobilised on a CM5 sensor chip by amine coupling (target 150 RU); Species is only implied by 'derived from egg albumen' and the abbreviation HEWL; also called antigen
Nature of the experiment: SPR (Biacore T200), HEWL amine-coupled to CM5 chip, 1ZVH at 8.6-700 nM as analyte, 1:1 binding model. The method, then: The antigen-binding activity of the 1ZVH (SEQ ID NO: 38) produced by Dpr9ΔsigF was analyzed by intermolecular interaction measurement using Biacore T200 (GE Healthcare). The sensor chip used was Series S Sensor Chip CM5, and the running buffer used was HBS-EP+. HEWL (lysozyme, derived from egg albumen, FUJIFILM Wako Pure Chemical Corporation) was adjusted to 0.7 g/L with 25 mM Na phosphate pH 6.5 buffer to prepare an antigen solution. The antigen solution diluted 100-fold with an acetic acid aqueous solution (pH 4.0, 4.5, 5.0, or 5.5) to 7 μg/mL was used as substrates. As samples, 1ZVH diluted with the running buffer to 8.6 nM, 26 nM, 78 nM, 230 nM, or 700 nM was used. The following items were set or performed on the control software attached to Biacore T200 using the substrates and the samples, and the binding between the HEWL and the 1ZVH was monitored. Immobilisation pH scouting was performed to investigate the optimum pH for ill- mobilization to a sensor chip. The optimum pH condition was judged to be pH 5.5. The target was set to 150 RU with Aim for immobilized level, and lysozyme was immobilized to Flow path 2 by an amine coupling method. In Flow path 1, Blank Immobilization was performed. The binding between a substrate and a sample was monitored in Flow path 2-1. […] The kinetics were analyzed using the resulting sensor gram. […]
A general note: Surface plasmon resonance follows binding to a sensor surface in real time, without labels.

T1 sequence (P00698 19-147 limits assumed): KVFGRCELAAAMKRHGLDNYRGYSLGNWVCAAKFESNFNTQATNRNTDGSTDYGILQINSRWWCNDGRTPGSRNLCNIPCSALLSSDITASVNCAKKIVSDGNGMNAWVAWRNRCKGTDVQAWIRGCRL

B1: 1ZVH (VHH, SEQ ID NO: 38) produced by Bacillus subtilis Dpr9ΔsigF (VHH)
VHH: QVQLVESGGGLVQPGGSLRLSCAASGFTFSNDAMTWVRQAPGKALEWVSSITLLGGGIPYYSDTVKGRFTISRDNTKNMLYLQMNSLKPEDTAVYYCAKGFKSDYPRGQGTQVTVSS
notes: Secreted by Dpr9ΔsigF and purified on Ni-NTA agarose; also called the VHH (1ZVH); purified VHH
Consider B1, for which the binding result is reported as “binds”.

(Values after patent US20230111102A1 (KAO, published 2023).)
